B1: Hairpin Ribozyme (parent)
chain: GUCCUCUUUCACGUGCGCGUGAAAGAGAGAAGUGAACCAGAGAAACACACGUUGUGGUAUAUUACCUGGUA

This data set covers variants of B1. Kind of data set: self-cleavage, relative activity (ratio to wild type); higher = more cleavage; co-transcriptional.
With G21U U58C, the self-cleavage stood at 0.84. Under A22C G68U stands 0.262; under A22C G68A, 0.165; under G21A G56A, 0.19. Under G21A G56U stands 0.185. For U20G C38A, the self-cleavage was determined as 0.184. For U20G C38U, the self-cleavage was found to be 0.542. For the variant G21A A43C, the self-cleavage is 0.153. As to G21A A43U, the self-cleavage was 0.123. As for G21A C38A, the self-cleavage is 0.208. Under G21A C38G stands 0.239. U20G A59C: the self-cleavage is 0.313. With G21A U62G, the self-cleavage amounted to 0.163. Under G21U A28U stands 0.688. Regarding U20G G51U, the self-cleavage was found to be 0.916. As to U20G G51A, the self-cleavage turned out to be 0.909. Take G21A A49C: the self-cleavage came to 0.233. As for G21A A49G, the self-cleavage was 0.469. On to A22C G25A, for which the self-cleavage stood at 0.247. Turning to A22C C66U, the self-cleavage came out at 0.649. Take A22C C66A: the self-cleavage was determined as 0.216. Turning to G21A A39C, the self-cleavage is 0.467. Under G21A A39U stands 0.346; under U20G G32U, 0.162.

With U20G G32C, the self-cleavage was found to be 0.105. For G21U A22U, the self-cleavage worked out at 0.809. As for G21C G27C, the self-cleavage is 0.134. For the variant G21U A47G, the self-cleavage is 0.208. A22G A39G: the self-cleavage worked out at 0.298.

Regarding A22C A59U, the self-cleavage was found to be 0.104. With A22C A59G, the self-cleavage was determined as 0.25. Consider A22C A59C, for which the self-cleavage stood at 0.0825. Consider G21C U60A, for which the self-cleavage turned out to be 0.744. Consider G21C U60C, for which the self-cleavage was found to be 0.851.

As to U20G A44U, the self-cleavage amounted to 0.0389. With U20G A49U, the self-cleavage was found to be 0.148. Under U20C U62A stands 0.202; under U20C U62G, 0.116.

As for A22C A44U, the self-cleavage was found to be 0.221. Under G21C C46U stands 0.116; under G21C C46A, 0.0884. Turning to G21A U58G, the self-cleavage came to 0.554. Under A22G A64G stands 0.565.

As to G21A A28G, the self-cleavage came to 0.979. Under G21A A28C stands 0.472; under G21U A23G, 0.772; under G21U A23U, 0.754.

As to A22G A61U, the self-cleavage worked out at 0.159. In the case of A22G A61C, the self-cleavage came out at 0.337. As for G21C U58A, the self-cleavage was found to be 0.577.

As for G21C U58C, the self-cleavage was 0.77. On to U20G A61C, for which the self-cleavage came out at 0.11.

As for U20G A61G, the self-cleavage was 0.257.

For A22G C50U, the self-cleavage came to 0.362.

A22G C50G: the self-cleavage is 0.42. With A22C A64G, the self-cleavage turned out to be 0.467.

A22C U60A: the self-cleavage was 0.664. For A22C U60C, the self-cleavage was found to be 1.16. With A22C U60G, the self-cleavage stood at 0.484. Under G21C G54U stands 0.511; under G21C G54A, 0.392; under G21A A24U, 0.513.

For the variant A22G G57U, the self-cleavage is 0.305. A22G G57A: the self-cleavage was found to be 0.17. As to U20G G21U, the self-cleavage worked out at 0.754. For the variant A22C U63G, the self-cleavage amounted to 0.109. Under U20G G27C stands 0.165; under A22C C38U, 0.552; under A22C C38G, 0.215. With G21U G25A, the self-cleavage came out at 0.252. In the case of G21U A24C, the self-cleavage was 0.481.

Take A22C A24G: the self-cleavage was 0.717. Under G21C C37A stands 0.192; under G21C C37U, 0.583; under A22G A26C, 0.649. For the variant G21C A59C, the self-cleavage came out at 0.238.

As to U20G U67C, the self-cleavage is 0.186. For U20G U67A, the self-cleavage came to 0.241.

As for U20G A24U, the self-cleavage was 0.731. With A22G A41C, the self-cleavage worked out at 1.01.

In the case of A22G A41U, the self-cleavage was 0.921. In the case of G21C G57A, the self-cleavage came out at 0.16.

G21U C50U: the self-cleavage turned out to be 0.376. For G21U C50G, the self-cleavage is 0.328. In the case of U20C G68C, the self-cleavage is 0.219. As to U20C G68U, the self-cleavage turned out to be 0.257. As for A22C C50U, the self-cleavage is 0.405. Under G21C G42U stands 0.379; under A22G A47G, 0.135; under G21A A45U, 0.286. On to G21A G69A, for which the self-cleavage turned out to be 0.382. Consider U20C U67C, for which the self-cleavage came out at 0.2. Consider U20C U53A, for which the self-cleavage turned out to be 0.861. Regarding U20C U53G, the self-cleavage came out at 0.708.

For the variant A22G A59U, the self-cleavage came out at 0.0393. Regarding G21C G69C, the self-cleavage worked out at 0.265. Take G21U A43U: the self-cleavage was found to be 0.129. Take G21U A43G: the self-cleavage came out at 0.282. U20G C66G: the self-cleavage turned out to be 0.219. With U20G C66A, the self-cleavage is 0.0821. As to G21A U63A, the self-cleavage came to 0.14. Under G21A A30C stands 0.128; under A22G A23C, 0.915.

On to A22G A23U, for which the self-cleavage was 0.59. Turning to G21C U63C, the self-cleavage is 0.196.

With U20C U60C, the self-cleavage is 0.724. With U20C U60A, the self-cleavage was determined as 1.15. Turning to G21U G51C, the self-cleavage came to 0.859. On to A22C G51U, for which the self-cleavage was 0.919. With A22G G29U, the self-cleavage came out at 0.0873. In the case of A22G G29A, the self-cleavage was 0.121.

As to G21A A26U, the self-cleavage is 0.525. Turning to G21A A26G, the self-cleavage is 0.658.

With G21C A30G, the self-cleavage came out at 0.22. On to A22C G56C, for which the self-cleavage was determined as 0.243. For A22C G56U, the self-cleavage came out at 0.148.

As for A22G G42U, the self-cleavage amounted to 0.288.

In the case of A22G G42C, the self-cleavage turned out to be 0.365.

Regarding G21A A31U, the self-cleavage was 0.0982.

Take A22C U67A: the self-cleavage is 0.195. For A22C U67C, the self-cleavage is 0.196. With U20G U62C, the self-cleavage turned out to be 0.188.

Turning to G21C U53C, the self-cleavage is 0.953.

On to G21A A61G, for which the self-cleavage amounted to 0.116. For G21A A61U, the self-cleavage was found to be 0.18. Turning to A22C A41G, the self-cleavage turned out to be 0.704.

For G21A A71C, the self-cleavage came out at 1.23. Under G21A A71G stands 0.854; under A22C C46A, 0.183.

With G21C A43G, the self-cleavage worked out at 0.104. For the variant G21C A43C, the self-cleavage was found to be 0.146. On to G21U U67A, for which the self-cleavage came out at 0.088. Regarding G21A A64G, the self-cleavage was found to be 0.418.

In the case of G21A A64U, the self-cleavage is 0.178. With G21U G29C, the self-cleavage amounted to 0.224.

Regarding A22C U52G, the self-cleavage worked out at 0.726. Turning to A22C U52C, the self-cleavage is 1.09. In the case of G21C A61C, the self-cleavage turned out to be 0.151. Under A22C U53A stands 0.81; under A22C U53G, 0.822.

As to A22C U53C, the self-cleavage was determined as 1.03. Under A22C U62G stands 0.155; under A22C U62A, 0.128; under U20G G54A, 0.417. As to U20G G54U, the self-cleavage was determined as 0.595. Turning to A22G A24G, the self-cleavage came to 0.808. With A22G A24U, the self-cleavage was found to be 1.08. Regarding G21A G34A, the self-cleavage is 0.968. Consider A22C G27A, for which the self-cleavage came to 0.272. In the case of A22C C65A, the self-cleavage was found to be 0.64. Consider A22C C65U, for which the self-cleavage came to 0.303. Under A22C C65G stands 0.116; under A22C U70A, 0.862; under A22C U70C, 0.892. On to G21U G42A, for which the self-cleavage came out at 0.158. On to G21U G42U, for which the self-cleavage was 0.285.

Turning to G21A U52G, the self-cleavage was found to be 0.784. Take G21C G40C: the self-cleavage worked out at 0.0941.

With G21C G40U, the self-cleavage was found to be 0.17. Regarding G21A C65A, the self-cleavage was 0.861. As for G21A C65U, the self-cleavage stood at 0.147. G21A C65G: the self-cleavage was found to be 0.158. Under G21A U60C stands 0.956. A22G C46G: the self-cleavage worked out at 0.208.

Consider A22G C46U, for which the self-cleavage is 0.0765. Regarding G21A A36U, the self-cleavage was determined as 0.503. Consider G21A A36C, for which the self-cleavage came out at 0.605.

The values are drawn from the RNAGym collection of RNA variant scans (doi:10.7554/elife.80360).
